The target of the assay is T1, GFP-Mfn2 (UniProt O95140 1-757).
T1 construct: The construct was generated in the authors' laboratory; also called lentiviral GFP-Mfn2; GFP-tagged Mfn2; source: HLMVECs, lentiviral expression (pWPXL), in lysate
T1 sequence (looked up): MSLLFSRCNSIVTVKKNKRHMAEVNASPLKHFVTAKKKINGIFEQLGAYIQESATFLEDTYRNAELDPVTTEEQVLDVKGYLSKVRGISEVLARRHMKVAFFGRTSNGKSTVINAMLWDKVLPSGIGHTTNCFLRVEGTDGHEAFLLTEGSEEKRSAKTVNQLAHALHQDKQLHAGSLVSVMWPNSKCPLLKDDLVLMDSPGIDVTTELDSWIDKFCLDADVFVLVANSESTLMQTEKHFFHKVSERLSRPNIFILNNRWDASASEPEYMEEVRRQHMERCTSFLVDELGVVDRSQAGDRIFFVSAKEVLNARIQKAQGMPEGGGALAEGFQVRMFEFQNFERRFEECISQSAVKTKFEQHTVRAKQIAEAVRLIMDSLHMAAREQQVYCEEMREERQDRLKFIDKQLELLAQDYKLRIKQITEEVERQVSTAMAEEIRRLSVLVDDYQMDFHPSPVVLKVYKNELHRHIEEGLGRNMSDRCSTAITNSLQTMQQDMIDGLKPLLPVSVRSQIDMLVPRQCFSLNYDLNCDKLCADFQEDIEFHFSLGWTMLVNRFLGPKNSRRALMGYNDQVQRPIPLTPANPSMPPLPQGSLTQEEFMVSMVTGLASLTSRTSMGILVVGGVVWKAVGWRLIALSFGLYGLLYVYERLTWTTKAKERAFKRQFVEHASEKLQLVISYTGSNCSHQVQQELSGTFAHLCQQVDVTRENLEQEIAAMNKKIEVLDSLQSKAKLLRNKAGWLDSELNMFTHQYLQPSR
Put plainly: co-IP; HLMVECs expressing GFP or GFP-Mfn2, with or without TNFα (10 ng/mL) for 6 h; GFP-Mfn2 immunoprecipitated with GFP-trap magnetic agarose, Western blot for β-catenin and Mfn2. The note with it: partners not purified. (Immunoblotting shows a protein as a band on a membrane.)

B1: β-catenin (natural protein, human (endogenous in HLMVECs), UniProt P35222 1-781, looked up)
chain: MATQADLMELDMAMEPDRKAAVSHWQQQSYLDSGIHSGATTTAPSLSGKGNPEEEDVDTSQVLYEWEQGFSQSFTQEQVADIDGQYAMTRAQRVRAAMFPETLDEGMQIPSTQFDAAHPTNVQRLAEPSQMLKHAVVNLINYQDDAELATRAIPELTKLLNDEDQVVVNKAAVMVHQLSKKEASRHAIMRSPQMVSAIVRTMQNTNDVETARCTAGTLHNLSHHREGLLAIFKSGGIPALVKMLGSPVDSVLFYAITTLHNLLLHQEGAKMAVRLAGGLQKMVALLNKTNVKFLAITTDCLQILAYGNQESKLIILASGGPQALVNIMRTYTYEKLLWTTSRVLKVLSVCSSNKPAIVEAGGMQALGLHLTDPSQRLVQNCLWTLRNLSDAATKQEGMEGLLGTLVQLLGSDDINVVTCAAGILSNLTCNNYKNKMMVCQVGGIEALVRTVLRAGDREDITEPAICALRHLTSRHQEAEMAQNAVRLHYGLPVVVKLLHPPSHWPLIKATVGLIRNLALCPANHAPLREQGAIPRLVQLLVRAHQDTQRRTSMGGTQQQFVEGVRMEEIVEGCTGALHILARDVHNRIVIRGLNTIPLFVQLLYSPIENIQRVAAGVLCELAQDKEAAEAIEAEGATAPLTELLHSRNEGVATYAAAVLFRMSEDKPQDYKKRLSVELTSSLFRTEPMAWNETADLGLDIGAQGEPLGYRQDDPSYRSFHSGGYGQDALGMDPMMEHEMGGHHPGADYPVDGLPDLGHAQDLMDGLPPGDSNQLAWFDTDL
notes: β-catenin, endogenous in human lung microvascular endothelial cells; also called beta-catenin; source: endogenous, HLMVEC lysate or fixed HLMVECs
On to B1, for which the “fold increase of the interaction after TNFα against basal” value was determined as 6 fold.
